Square brackets hold non-standard residues; d marks the D form. Ends that are not written are not given here. pS = N[C@@H](COP(=O)(O)O)C(=O)O; FAM = 5,6-carboxyfluorescein

The term stoichiometry N denotes a count of units in the complex or per binding partner. What is called Kd is a measure of binding affinity in units of concentration. Lower therefore signals higher affinity.

In experiment [1] the target is 2xpS2 CTD diheptapeptide, Atto-488 labeled. Put plainly: fluorescence correlation spectroscopy (FCS); 15 nM Atto-488 labeled peptide with 40-0.2 µM SPOC, 20 °C; molar masses from diffusion times.
Experiment [2] deals with 2xpS2pS5 CTD diheptapeptide, Atto-488 labeled. Described as above.
In experiment [3] the target is T1, 2xpS2pS5 CTD diheptapeptide, FAM-labeled.
T1 construct: CTD diheptapeptide: two heptarepeats (Y1S2P3T4S5P6S7) of the C-terminal domain of RPB1, the largest Pol II subunit; source: synthetic peptide (Clonestar)
T1 peptide: {FAM}-Y[pS]PT[pS]PSY[pS]PT[pS]PS
Put plainly: fluorescence polarisation; fluorescence anisotropy; 10 nM FAM-labeled CTD peptide titrated with SPOC protein; 20 °C, 25 mM Tris-Cl pH 8, 25 mM NaCl, 1 mM DTT; one site saturation with non-specific binding model.

Experiment [4] has as its target T2, 2xpS2 CTD diheptapeptide, FAM-labeled.
T2 construct: CTD diheptapeptide: two heptarepeats (Y1S2P3T4S5P6S7) of the C-terminal domain of RPB1, the largest Pol II subunit; source: synthetic peptide (Clonestar)
T2 peptide: {FAM}-Y[pS]PTSPSY[pS]PTSPS
The description is as above.

The target of experiment [5] is T3, 2xpS2pS7 CTD diheptapeptide, FAM-labeled.
T3 construct: CTD diheptapeptide: two heptarepeats (Y1S2P3T4S5P6S7) of the C-terminal domain of RPB1, the largest Pol II subunit; source: synthetic peptide (Clonestar)
T3 peptide: {FAM}-Y[pS]PTSP[pS]Y[pS]PTSP[pS]
Described as above.

The target of experiment [6] is 2xpS7 CTD diheptapeptide, FAM-labeled. The experiment is described as above.
Experiment [7] deals with 2xpS5 CTD diheptapeptide, FAM-labeled. Described as above.
The target of experiment [8] is T4, PHF3 SPOC domain (1199-1356aa), bacterially expressed (human, UniProt Q92576 1199-1356).
T4 chain: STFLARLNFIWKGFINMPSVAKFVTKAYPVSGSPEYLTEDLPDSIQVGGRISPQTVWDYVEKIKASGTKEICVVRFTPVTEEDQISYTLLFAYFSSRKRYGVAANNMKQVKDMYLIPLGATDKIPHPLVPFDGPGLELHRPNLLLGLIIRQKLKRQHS
Put plainly: FP; 100 mM NaCl.

Experiment [9] addresses T5, PHF3 SPOC R1248A mutant (human, UniProt Q92576 1199-1356, R1248A).
T5 sequence: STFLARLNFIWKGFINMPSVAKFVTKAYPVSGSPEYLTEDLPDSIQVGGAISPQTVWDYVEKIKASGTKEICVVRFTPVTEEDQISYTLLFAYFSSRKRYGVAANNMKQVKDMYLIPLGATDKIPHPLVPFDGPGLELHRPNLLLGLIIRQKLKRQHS
Put plainly: FP; 25 mM NaCl.

Regarding “PHF3 SPOC domain (1199-1356aa), bacterially expressed (from UniProt Q92576 1199-1356) (domain or fragment)”, the stoichiometry N in experiment [1] and in [2] was 1 in each case. The Kd in experiment [3] was 4.8 µM; in experiment [4], 1.6 µM; in experiment [5], 0.8 µM; in experiment [6], 26 µM; in experiment [7], 20 µM.
In experiment [8], {FAM}-Y[pS]PTSPSY[pS]PTSPS [2xpS2 CTD diheptapeptide, FAM-labeled] came in with a Kd of 1.4 µM. In other words, the single-digit micromolar range.
With {FAM}-YSPT[pS]PSYSPT[pS]PS [2xpS5 CTD diheptapeptide, FAM-labeled], the Kd in [9] is 22.3 µM.

B1: PHF3 SPOC R1248A mutant (domain or fragment, human, UniProt Q92576 1199-1356, looked up)
chain: STFLARLNFIWKGFINMPSVAKFVTKAYPVSGSPEYLTEDLPDSIQVGGAISPQTVWDYVEKIKASGTKEICVVRFTPVTEEDQISYTLLFAYFSSRKRYGVAANNMKQVKDMYLIPLGATDKIPHPLVPFDGPGLELHRPNLLLGLIIRQKLKRQHS
notes: Expression, purification and tag cleavage are told only for SPOC in general; source: E. coli Rosetta2 (DE3), purified (told for SPOC); not shown: His6, N-terminal, cleaved
Take B1: the “fold reduction of binding against PHF3 SPOC WT” value in experiment [3] (both partners purified), in experiment [4] (both partners purified) and in experiment [5] (both partners purified) was above 10 fold in each case.
The molecule {FAM}-Y[pS]PT[pS]PSY[pS]PT[pS]PS [2xpS2pS5 CTD diheptapeptide, FAM-labeled] showed a Kd in experiment [9] of 48.3 µM.

For the origin of these results see PMC8526623, “PHF3 regulates neuronal gene expression through the Pol II CTD reader domain SPOC” (Nature Communications, 2021).
